Values joined by “and” are separate entries in the source; they are usually repeats but may differ in a detail not shown here. Identical values can stand only once.
Columns and labels:
[1] = system: Human insulin receptor ectodomain (HIR) (Homo sapiens), P06213-2+P06213-2; assay: MST; conditions: DNA backbone, PBS (1.5 mM KH2PO4, 8.1 mM Na2HPO4, 2.7 mM KCl, 137 mM NaCl) with 5 mM MgCl2, pH 7.4, MST with 0.1% Pluronic F-127 at 25 C, FNBA at room temperature, high values mean tight binding
[2] = system: Human insulin receptor ectodomain (HIR) (Homo sapiens), P06213-2+P06213-2; assay: ELONA; conditions: DNA backbone, PBS (1.5 mM KH2PO4, 8.1 mM Na2HPO4, 2.7 mM KCl, 137 mM NaCl) with 5 mM MgCl2, pH 7.4, MST with 0.1% Pluronic F-127 at 25 C, FNBA at room temperature, high values mean tight binding
[3] = molecular target: Dog insulin receptor ectodomain (DIR) (dog) (UniProt A0A8I3PWD4); assay: MST; conditions: phenyl-dU (rigid) and indole-dA (flexible) after nt 20; IB: PBS (1.5 mM KH2PO4, 8.1 mM Na2HPO4, 2.7 mM KCl, 137 mM NaCl) + 5 mM MgCl2, pH 7.4; MST +0.1% Pluronic F-127, 25 C; SPR 25 C; FNBA and BLI r.t.
Sequence of Dog insulin receptor ectodomain (DIR) (dog) (UniProt A0A8I3PWD4) (A0A8I3PWD4 entry or part of it): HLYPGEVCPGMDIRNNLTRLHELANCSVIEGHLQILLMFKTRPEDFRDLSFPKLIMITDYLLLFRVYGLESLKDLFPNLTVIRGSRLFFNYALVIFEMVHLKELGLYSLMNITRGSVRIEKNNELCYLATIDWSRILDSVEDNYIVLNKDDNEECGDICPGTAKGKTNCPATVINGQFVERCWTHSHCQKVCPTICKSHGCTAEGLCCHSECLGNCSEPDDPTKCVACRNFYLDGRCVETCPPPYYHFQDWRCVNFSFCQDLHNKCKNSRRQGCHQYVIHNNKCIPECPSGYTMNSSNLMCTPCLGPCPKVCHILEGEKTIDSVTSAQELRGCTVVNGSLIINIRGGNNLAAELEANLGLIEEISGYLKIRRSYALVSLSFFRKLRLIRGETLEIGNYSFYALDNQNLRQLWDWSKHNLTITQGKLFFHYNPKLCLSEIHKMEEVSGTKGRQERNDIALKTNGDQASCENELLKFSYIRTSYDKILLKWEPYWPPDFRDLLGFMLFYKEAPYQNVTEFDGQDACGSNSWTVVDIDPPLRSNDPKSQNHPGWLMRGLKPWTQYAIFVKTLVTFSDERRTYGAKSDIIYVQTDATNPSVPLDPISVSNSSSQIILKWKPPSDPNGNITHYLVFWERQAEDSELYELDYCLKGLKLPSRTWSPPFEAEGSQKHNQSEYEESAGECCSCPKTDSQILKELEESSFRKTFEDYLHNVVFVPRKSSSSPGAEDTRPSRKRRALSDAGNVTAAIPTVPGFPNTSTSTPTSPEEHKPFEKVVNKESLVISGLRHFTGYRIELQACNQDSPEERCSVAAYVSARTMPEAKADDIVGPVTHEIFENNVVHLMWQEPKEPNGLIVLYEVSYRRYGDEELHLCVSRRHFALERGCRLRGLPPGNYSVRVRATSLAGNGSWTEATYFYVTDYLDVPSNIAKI

[4] = molecular target: Human IGF-1R ectodomain (Homo sapiens) (UniProt P08069+P08069); assay: MST; conditions: DNA backbone; 7-deaza-7-(indolyl-ethyl)-dA (dAAIn) at 27,28,32,33,35,39,48,51; 5-(phenyl-ethynyl)-dU (dUEPh) at 24,25,26,31,40,42,44,46,49,52,54; PBS (1.5 mM KH2PO4, 8.1 mM Na2HPO4, 2.7 mM KCl, 137 mM NaCl) with 5 mM MgCl2, pH 7.4; MST with 0.1% Pluronic F-127 at 25 C; FNBA at room temperature; high values mean tight binding
[5] = system: Human insulin receptor ectodomain (HIR) (Homo sapiens), P06213-2; assay: MST; conditions: IB: PBS (1.5 mM KH2PO4, 8.1 mM Na2HPO4, 2.7 mM KCl, 137 mM NaCl) + 5 mM MgCl2, pH 7.4, MST +0.1% Pluronic F-127, 25 C, SPR 25 C, FNBA and BLI r.t.
Sequence of Human insulin receptor ectodomain (HIR) (Homo sapiens), P06213-2 (P06213 other isoform, or with tags, fused parts or gaps): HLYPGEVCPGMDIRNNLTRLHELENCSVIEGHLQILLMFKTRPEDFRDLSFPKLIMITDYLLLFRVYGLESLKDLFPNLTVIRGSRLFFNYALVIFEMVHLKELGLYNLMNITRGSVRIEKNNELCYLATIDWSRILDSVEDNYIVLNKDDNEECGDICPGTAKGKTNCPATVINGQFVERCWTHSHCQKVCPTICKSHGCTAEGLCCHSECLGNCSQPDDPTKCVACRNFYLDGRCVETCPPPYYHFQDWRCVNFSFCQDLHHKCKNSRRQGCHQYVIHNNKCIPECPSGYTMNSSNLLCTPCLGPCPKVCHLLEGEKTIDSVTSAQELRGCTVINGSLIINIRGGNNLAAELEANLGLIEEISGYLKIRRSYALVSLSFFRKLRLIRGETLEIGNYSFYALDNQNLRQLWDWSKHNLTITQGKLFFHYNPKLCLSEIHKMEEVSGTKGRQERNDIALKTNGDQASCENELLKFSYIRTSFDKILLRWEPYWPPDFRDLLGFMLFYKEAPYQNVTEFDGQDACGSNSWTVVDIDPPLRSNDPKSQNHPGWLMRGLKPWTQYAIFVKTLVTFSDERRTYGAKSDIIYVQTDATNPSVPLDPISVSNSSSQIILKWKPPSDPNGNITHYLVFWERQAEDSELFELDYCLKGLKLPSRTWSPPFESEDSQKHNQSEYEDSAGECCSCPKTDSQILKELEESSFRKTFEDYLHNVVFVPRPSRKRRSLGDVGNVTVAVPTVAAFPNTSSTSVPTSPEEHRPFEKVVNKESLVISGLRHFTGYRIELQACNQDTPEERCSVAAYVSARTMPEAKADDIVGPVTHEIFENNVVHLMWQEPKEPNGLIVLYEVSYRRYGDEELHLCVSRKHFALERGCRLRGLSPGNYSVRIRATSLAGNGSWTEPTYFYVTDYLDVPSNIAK

[6] = system: Human insulin receptor ectodomain (HIR) (Homo sapiens), P06213-2; assay: BLI; conditions: after primer nt 1-20 every U = rigidly linked phenyl-dU and every A = flexibly linked indole-dA (nucleotides 1,2); DNA backbone; IB: PBS (1.5 mM KH2PO4, 8.1 mM Na2HPO4, 2.7 mM KCl, 137 mM NaCl) + 5 mM MgCl2, pH 7.4; MST +0.1% Pluronic F-127, 25 C; SPR 25 C; FNBA and BLI r.t.
[7] = molecular target: T1, Cat insulin receptor ectodomain (CIR) (cat) (UniProt A0ABI7YJR5+A0ABI7YJR5); assay: MST; conditions: DNA backbone; 7-deaza-7-(indolyl-ethyl)-dA (dAAIn) at 27,28,32,33,35,39,48,51; 5-(phenyl-ethynyl)-dU (dUEPh) at 24,25,26,31,40,42,44,46,49,52,54; PBS (1.5 mM KH2PO4, 8.1 mM Na2HPO4, 2.7 mM KCl, 137 mM NaCl) with 5 mM MgCl2, pH 7.4; MST with 0.1% Pluronic F-127 at 25 C; FNBA at room temperature; high values mean tight binding
T1 sequence (chain, as listed by the source, chain 1 of 2): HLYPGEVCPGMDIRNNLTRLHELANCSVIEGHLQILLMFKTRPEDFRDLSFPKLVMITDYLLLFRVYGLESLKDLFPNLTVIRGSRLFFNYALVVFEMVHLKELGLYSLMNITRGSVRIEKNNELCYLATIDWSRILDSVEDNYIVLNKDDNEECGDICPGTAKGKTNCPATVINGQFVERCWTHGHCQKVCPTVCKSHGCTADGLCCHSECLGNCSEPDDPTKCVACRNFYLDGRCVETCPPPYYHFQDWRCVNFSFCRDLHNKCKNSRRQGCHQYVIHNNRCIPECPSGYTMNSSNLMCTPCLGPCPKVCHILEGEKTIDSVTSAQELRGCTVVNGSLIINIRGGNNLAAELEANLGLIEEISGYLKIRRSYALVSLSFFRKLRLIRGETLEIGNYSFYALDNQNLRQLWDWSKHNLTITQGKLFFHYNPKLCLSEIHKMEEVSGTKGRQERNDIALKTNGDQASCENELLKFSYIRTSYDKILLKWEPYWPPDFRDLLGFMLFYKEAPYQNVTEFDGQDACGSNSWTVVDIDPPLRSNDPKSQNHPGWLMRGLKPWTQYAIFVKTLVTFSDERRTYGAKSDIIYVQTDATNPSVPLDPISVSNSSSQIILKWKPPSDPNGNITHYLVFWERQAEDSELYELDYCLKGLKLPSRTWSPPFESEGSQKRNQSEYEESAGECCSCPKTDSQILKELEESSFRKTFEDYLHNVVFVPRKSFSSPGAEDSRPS
T1 sequence (chain, as listed by the source, chain 2 of 2): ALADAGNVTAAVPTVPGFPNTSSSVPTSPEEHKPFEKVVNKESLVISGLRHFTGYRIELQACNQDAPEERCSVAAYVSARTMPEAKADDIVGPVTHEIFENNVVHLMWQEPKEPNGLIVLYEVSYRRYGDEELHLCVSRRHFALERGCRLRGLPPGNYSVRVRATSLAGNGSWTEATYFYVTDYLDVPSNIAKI

[8] = molecular target: T2, Dog insulin receptor ectodomain (DIR) (dog) (UniProt A0A8I3PWD4+A0A8I3PWD4); assay: MST; conditions: DNA backbone; 7-deaza-7-(indolyl-ethyl)-dA (dAAIn) at 27,28,32,33,35,39,48,51; 5-(phenyl-ethynyl)-dU (dUEPh) at 24,25,26,31,40,42,44,46,49,52,54; PBS (1.5 mM KH2PO4, 8.1 mM Na2HPO4, 2.7 mM KCl, 137 mM NaCl) with 5 mM MgCl2, pH 7.4; MST with 0.1% Pluronic F-127 at 25 C; FNBA at room temperature; high values mean tight binding
T2 sequence (chain, as listed by the source, chain 1 of 2): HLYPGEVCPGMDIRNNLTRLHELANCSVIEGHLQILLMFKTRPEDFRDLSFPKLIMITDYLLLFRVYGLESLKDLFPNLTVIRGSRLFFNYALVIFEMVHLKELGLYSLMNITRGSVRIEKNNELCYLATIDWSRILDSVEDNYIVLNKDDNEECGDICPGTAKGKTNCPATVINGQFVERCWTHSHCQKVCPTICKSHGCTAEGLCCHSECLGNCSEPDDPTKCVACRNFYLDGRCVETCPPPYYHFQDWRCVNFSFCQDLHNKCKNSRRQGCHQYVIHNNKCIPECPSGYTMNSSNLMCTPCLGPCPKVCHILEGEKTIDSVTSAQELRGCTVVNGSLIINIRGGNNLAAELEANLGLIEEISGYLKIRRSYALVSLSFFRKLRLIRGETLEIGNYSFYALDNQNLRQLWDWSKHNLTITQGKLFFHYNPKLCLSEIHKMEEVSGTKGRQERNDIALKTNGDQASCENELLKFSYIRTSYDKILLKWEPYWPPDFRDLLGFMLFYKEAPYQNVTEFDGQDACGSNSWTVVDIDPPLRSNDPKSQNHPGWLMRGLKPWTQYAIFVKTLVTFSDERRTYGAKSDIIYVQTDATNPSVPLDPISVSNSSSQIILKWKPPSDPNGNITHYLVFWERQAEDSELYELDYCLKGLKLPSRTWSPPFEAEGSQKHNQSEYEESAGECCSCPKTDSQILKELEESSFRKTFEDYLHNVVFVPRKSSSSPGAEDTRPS
T2 sequence (chain, as listed by the source, chain 2 of 2): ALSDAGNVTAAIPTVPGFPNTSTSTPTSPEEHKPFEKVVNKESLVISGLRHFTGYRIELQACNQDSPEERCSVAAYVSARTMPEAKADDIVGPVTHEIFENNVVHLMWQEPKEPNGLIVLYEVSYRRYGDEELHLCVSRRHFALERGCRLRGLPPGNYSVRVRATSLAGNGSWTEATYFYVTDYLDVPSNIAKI

[9] = system: Human insulin receptor ectodomain (HIR) (Homo sapiens), P06213-2; assay: SPR; conditions: after primer nt 1-20 every U = rigidly linked phenyl-dU and every A = flexibly linked indole-dA (nucleotides 1,2); DNA backbone; IB: PBS (1.5 mM KH2PO4, 8.1 mM Na2HPO4, 2.7 mM KCl, 137 mM NaCl) + 5 mM MgCl2, pH 7.4; MST +0.1% Pluronic F-127, 25 C; SPR 25 C; FNBA and BLI r.t.
[10] = molecular target: T1, Cat insulin receptor ectodomain (CIR) (cat); assay: ELONA; conditions: DNA backbone; 7-deaza-7-(indolyl-ethyl)-dA (dAAIn) at 27,28,32,33,35,39,48,51; 5-(phenyl-ethynyl)-dU (dUEPh) at 24,25,26,31,40,42,44,46,49,52,54; PBS (1.5 mM KH2PO4, 8.1 mM Na2HPO4, 2.7 mM KCl, 137 mM NaCl) with 5 mM MgCl2, pH 7.4; MST with 0.1% Pluronic F-127 at 25 C; FNBA at room temperature; high values mean tight binding
[11] = molecular target: T2, Dog insulin receptor ectodomain (DIR) (dog); assay: ELONA; conditions: DNA backbone; 7-deaza-7-(indolyl-ethyl)-dA (dAAIn) at 27,28,32,33,35,39,48,51; 5-(phenyl-ethynyl)-dU (dUEPh) at 24,25,26,31,40,42,44,46,49,52,54; PBS (1.5 mM KH2PO4, 8.1 mM Na2HPO4, 2.7 mM KCl, 137 mM NaCl) with 5 mM MgCl2, pH 7.4; MST with 0.1% Pluronic F-127 at 25 C; FNBA at room temperature; high values mean tight binding
[12] = system: Human insulin receptor isoform A, native (IM-9 cells) (Homo sapiens), P06213-2+P06213-2; assay: competition with 125I-insulin; conditions: after primer nt 1-20 every U = rigidly linked phenyl-dU and every A = flexibly linked indole-dA (nucleotides 1,2); DNA backbone; IB: PBS (1.5 mM KH2PO4, 8.1 mM Na2HPO4, 2.7 mM KCl, 137 mM NaCl) + 5 mM MgCl2, pH 7.4; MST +0.1% Pluronic F-127, 25 C; SPR 25 C; FNBA and BLI r.t.
Insulin (Homo sapiens) = Insulin (Homo sapiens) (UniProt P01308); assay: radioligand binding; conditions: cited from earlier work
Sequence of Insulin (Homo sapiens) (P01308 90-110): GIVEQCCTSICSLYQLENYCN

[13] = 7-deaza-7-(indolyl-ethyl)-dA (dAAIn) at 27,35,36,38,41,44,48,54, 5-(phenyl-ethynyl)-dU (dUEPh) at 21,22,23,32,33,37,40,45,46,50,53
[14] = 7-deaza-7-(indolyl-ethyl)-dA (dAAIn) at 27,28,32,33,35,39,48,51, 5-(phenyl-ethynyl)-dU (dUEPh) at 24,25,26,31,40,42,44,46,49,52,54
[15] = 7-deaza-7-(indolyl-ethynyl)-dA (dAEIn) at 27,28,32,33,35,39,48,51, 5-(phenyl-ethyl)-dU (dUAPh) at 24,25,26,31,40,42,44,46,49,52,54
[16] = 7-deaza-7-(indolyl-ethynyl)-dA (dAEIn) at 27,28,32,33,35,39,48,51, 5-(phenyl-ethynyl)-dU (dUEPh) at 24,25,26,31,40,42,44,46,49,52,54
[17] = 7-deaza-7-(indolyl-ethyl)-dA (dAAIn) at 27,28,32,33,35,39,48,51, 5-(phenyl-ethyl)-dU (dUAPh) at 24,25,26,31,40,42,44,46,49,52,54
[18] = 7-deaza-7-(phenyl-ethyl)-dA (dAAPh) at 27,28,32,33,35,39,48,51, 5-(phenyl-ethynyl)-dU (dUEPh) at 24,25,26,31,40,42,44,46,49,52,54

Sequence of Human insulin receptor ectodomain (HIR) (Homo sapiens), P06213-2+P06213-2 (P06213 other isoform, or with tags, fused parts or gaps, chain 1 of 2): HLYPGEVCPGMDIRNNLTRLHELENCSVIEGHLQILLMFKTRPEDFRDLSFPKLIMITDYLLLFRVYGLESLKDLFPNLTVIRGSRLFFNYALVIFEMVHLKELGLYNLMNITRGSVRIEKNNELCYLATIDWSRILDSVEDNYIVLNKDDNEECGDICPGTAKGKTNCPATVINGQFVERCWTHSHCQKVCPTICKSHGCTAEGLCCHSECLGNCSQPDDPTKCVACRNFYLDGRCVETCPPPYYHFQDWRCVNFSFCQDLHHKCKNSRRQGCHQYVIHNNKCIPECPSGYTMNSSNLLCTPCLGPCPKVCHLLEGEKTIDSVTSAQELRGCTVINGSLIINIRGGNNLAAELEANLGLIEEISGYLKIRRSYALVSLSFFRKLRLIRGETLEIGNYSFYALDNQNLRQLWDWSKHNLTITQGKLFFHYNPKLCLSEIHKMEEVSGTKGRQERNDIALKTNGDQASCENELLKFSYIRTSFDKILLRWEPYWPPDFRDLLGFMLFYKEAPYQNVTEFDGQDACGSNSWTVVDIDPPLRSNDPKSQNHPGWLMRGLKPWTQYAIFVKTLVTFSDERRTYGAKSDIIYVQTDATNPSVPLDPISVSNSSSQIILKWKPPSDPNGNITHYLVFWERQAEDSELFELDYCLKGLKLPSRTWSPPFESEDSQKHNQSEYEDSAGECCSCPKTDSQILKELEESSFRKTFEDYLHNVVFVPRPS
Sequence of Human insulin receptor ectodomain (HIR) (Homo sapiens), P06213-2+P06213-2 (P06213 763-956, chain 2 of 2): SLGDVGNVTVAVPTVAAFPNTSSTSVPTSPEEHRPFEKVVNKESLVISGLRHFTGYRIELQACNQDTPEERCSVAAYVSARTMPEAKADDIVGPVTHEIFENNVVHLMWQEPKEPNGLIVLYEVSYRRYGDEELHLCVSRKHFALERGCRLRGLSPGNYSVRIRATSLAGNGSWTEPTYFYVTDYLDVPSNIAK

ACTGCACCTGGCCTTTAACTUUUCGCACGCGUUGAAUACUACCAUUGAGUCGUAG [HIR_SC]
binding (delta Fnorm (per mille)) [1, 13]: -1.14 | binding signal (a.u. fluorescence) [2, 13]: 266

CAACTTCTACCGGTCCATGTUUGUGAUGCCGACAGCUAGCAGCAAGUAAACGGUC [DIR-5]
Kd [3]: 19.2 nM

CATGACGCTCACTGTATCTCGCCUUUAACGUAAGAGCGAUGUCUCUCAUGAUGUC [HIR-8]
binding (delta Fnorm (per mille)) [4]: -0.562 | binding (delta Fnorm (per mille)) [1, 14]: 24.8 | Kd ([5]; as HIR-6: phenyl-dU (rigid) and indole-dA (flexible) after nt 20): 11.7 nM | binding signal (a.u. fluorescence) [2, 14]: 34500

CATGACGCTCACTGTATCTCGCGTTTAACGUAACAGCGAUGUCUCUCAUGAUGUC [HIR-6_M1]
binding signal (a.u. fluorescence) ([2]; 7-deaza-7-(indolyl-ethyl)-dA (dAAIn) at 32,33,35,39,48,51, 5-(phenyl-ethynyl)-dU (dUEPh) at 31,40,42,44,46,49,52,54): 205

CATGACGCTCACTGTATCTCGCGUUUAACGUAACAGCGAUGUCUCUCAUGAUGUC [HIR-6]
Kd [6]: 0.137 nM | binding (delta Fnorm (per mille)) [7]: -0.745 | binding (delta Fnorm (per mille)) [8]: -1.86 | binding (delta Fnorm (per mille)) [4]: 3.56 | binding (delta Fnorm (per mille)) [1, 14]: 38.1 | Kd ([5]; after primer nt 1-20 every U = rigidly linked phenyl-dU and every A = flexibly linked indole-dA (nucleotides 1,2), DNA backbone): 2.25 nM | Kd [9]: 0.306 nM | binding signal (a.u. fluorescence) [10]: 164 | binding signal (a.u. fluorescence) [11]: 272 | binding signal (a.u. fluorescence) [2, 14]: 45800 and 39500 and 44800 | Ki [12]: 68.8 nM

CATGACGCTCACTGTATCTCGCGUUUAACGUAACAGCGAUGUCUCUCAUGAUGUC [HIR-6_V1]
binding (delta Fnorm (per mille)) [1, 15]: -0.274 | binding signal (a.u. fluorescence) [2, 15]: 742

CATGACGCTCACTGTATCTCGCGUUUAACGUAACAGCGAUGUCUCUCAUGAUGUC [HIR-6_V2]
binding (delta Fnorm (per mille)) [1, 16]: 1.86 | binding signal (a.u. fluorescence) [2, 16]: 644

CATGACGCTCACTGTATCTCGCGUUUAACGUAACAGCGAUGUCUCUCAUGAUGUC [HIR-6_V3]
binding (delta Fnorm (per mille)) [1, 17]: -3.35 | binding signal (a.u. fluorescence) [2, 17]: 196

CATGACGCTCACTGTATCTCGCGUUUAACGUAACAGCGAUGUCUCUCAUGAUGUC [HIR-6_V4]
binding (delta Fnorm (per mille)) [1, 18]: -1.7 | binding signal (a.u. fluorescence) [2, 18]: 195

Insulin receptor (from UniProt P06213)
Kd (Insulin (Homo sapiens)): 0.3 nM

From article PMC13389011
